The target of the experiment is respiratory complex III (mouse (endogenous in liver mitochondria)). Put plainly: native gel or EMSA; blue native PAGE (3-12% Bis-Tris) of digitonin-solubilised isolated liver mitochondria from control or CLS-LKO mice (standard chow); western blotting with a supercomplex antibody cocktail or subunit-specific antibodies.

For respiratory complex III, the stoichiometry N is 2.

A word on the stoichiometry N: it is the number of molecules, sites or subunits per partner or assembly.

The record behind these values is article PMC13537762.
